Experimental data published in publication PMC3441732, “Marburg Virus VP35 Can Both Fully Coat the Backbone and Cap the Ends of dsRNA for Interferon Antagonism”.

Experiments:
MARV VP35 RBD [1] = target: T1, MARV VP35 RBD (Marburg virus, UniProt P35259 205-329); assay: dual-filter dot blot; Hill 2.1±0.2; 10 mM Tris pH 8.0, 200 mM NaCl, 2 mM TCEP ([…], and ITC); temperature not stated; conditions: protein: recombinant; tags: 6xHis (pET46b), TEV-cleaved; chain copies: 4; label: 5'-32P sense strand
MARV VP35 RBD [2] = target: T1, MARV VP35 RBD; assay: dual-filter dot blot; Hill 3.1±0.2; 10 mM Tris pH 8.0, 200 mM NaCl, 2 mM TCEP ([…], and ITC); temperature not stated; conditions: protein: recombinant; tags: 6xHis (pET46b), TEV-cleaved; chain copies: 4; label: 5'-32P sense strand (dot blot); none in ITC
MARV VP35 RBD [3] = target: T1, MARV VP35 RBD; assay: ITC; 10 mM Tris pH 8.0, 200 mM NaCl, 2 mM TCEP ([…], and ITC); temperature not stated; conditions: protein: recombinant, tags: 6xHis (pET46b), TEV-cleaved, chain copies: 4, label: 5'-32P sense strand (dot blot), none in ITC
RESTV VP35 RBD [4] = target: T2, RESTV VP35 RBD (Reston virus (RESTV), UniProt Q8JPY0 205-329); assay: dual-filter dot blot; Hill 3.4±0.4; 10 mM Tris pH 8.0, 200 mM NaCl, 2 mM TCEP ([…], and ITC); temperature not stated; conditions: protein: recombinant; tags: 6xHis, cleaved; chain copies: 2; label: 5'-32P sense strand (dot blot); none in ITC
T2 sequence: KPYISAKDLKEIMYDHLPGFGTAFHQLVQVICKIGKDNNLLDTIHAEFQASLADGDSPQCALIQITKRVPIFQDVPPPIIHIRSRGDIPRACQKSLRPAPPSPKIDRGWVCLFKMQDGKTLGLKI

EBOV VP35 RBD [5] = target: T3, EBOV VP35 RBD (Ebola virus, UniProt Q05127 216-340); assay: dual-filter dot blot; Hill 3.6±0.4; 10 mM Tris pH 8.0, 200 mM NaCl, 2 mM TCEP ([…], and ITC); temperature not stated; conditions: protein: recombinant; tags: 6xHis, cleaved; label: 5'-32P sense strand (dot blot); none in ITC
MARV VP35 RBD [6] = target: T1, MARV VP35 RBD; assay: dual-filter dot blot; Hill 3.5±0.3; 10 mM Tris pH 8.0, 200 mM NaCl, 2 mM TCEP ([…], and ITC); temperature not stated; conditions: protein: recombinant; tags: 6xHis (pET46b), TEV-cleaved; chain copies: 4; label: 5'-32P sense strand (dot blot); none in ITC; blunt
RESTV VP35 RBD [7] = target: T2, RESTV VP35 RBD; assay: dual-filter dot blot; Hill 2.6±0.2; 10 mM Tris pH 8.0, 200 mM NaCl, 2 mM TCEP ([…], and ITC); temperature not stated; conditions: protein: recombinant; tags: 6xHis, cleaved; chain copies: 2; label: 5'-32P sense strand (dot blot); none in ITC; blunt
EBOV VP35 RBD [8] = target: T3, EBOV VP35 RBD; assay: dual-filter dot blot; Hill 2.9±0.3; 10 mM Tris pH 8.0, 200 mM NaCl, 2 mM TCEP ([…], and ITC); temperature not stated; conditions: protein: recombinant; tags: 6xHis, cleaved; label: 5'-32P sense strand (dot blot); none in ITC; blunt
MARV VP35 RBD [9] = target: T1, MARV VP35 RBD; assay: X-ray crystal structure; 10 mM Tris pH 8.0, 200 mM NaCl, 2 mM TCEP ([…], and ITC); temperature not stated; conditions: protein: recombinant; tags: 6xHis (pET46b), TEV-cleaved; chain copies: 4

T1 sequence (P35259 205-329): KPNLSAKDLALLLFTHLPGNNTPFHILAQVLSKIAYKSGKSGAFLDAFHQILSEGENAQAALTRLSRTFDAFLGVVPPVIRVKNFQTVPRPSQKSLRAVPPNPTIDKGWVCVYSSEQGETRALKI
T3 sequence (Q05127 216-340): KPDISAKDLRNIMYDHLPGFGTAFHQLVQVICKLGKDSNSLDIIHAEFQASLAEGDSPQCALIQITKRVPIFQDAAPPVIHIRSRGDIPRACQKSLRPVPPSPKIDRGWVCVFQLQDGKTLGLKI

B1: 18-bp dsRNA with 5' overhang (dsRNA)
RNA 1: GAGAGAAGGAGGGAGGGAGGA
RNA 2: UCCUCCCUCCCUCCUUCUCUC
- Kd (MARV VP35 RBD [1]): 4.4 ± 0.3 µM

B2: 18-bp dsRNA with 3' overhang (dsRNA)
RNA 1: AGAAGGAGGGAGGGAGGAGAG
RNA 2: CUCUCCUCCCUCCCUCCUUCU
- Kd (MARV VP35 RBD [2]): 9.3 ± 0.2 µM
- Kd (MARV VP35 RBD [3]): 3.4 µM
- Kd (RESTV VP35 RBD [4]): 6 ± 0.2 µM
- Kd (EBOV VP35 RBD [5]): 17.1 ± 0.7 µM

B3: 18-bp blunt-ended dsRNA (dsRNA)
RNA 1: AGAAGGAGGGAGGGAGGA
RNA 2: UCCUCCCUCCCUCCUUCU
- Kd (MARV VP35 RBD [6]): 8.4 ± 0.2 µM
- Kd (MARV VP35 RBD [3]; blunt): 28.6 ± 16.5 µM
- Kd (RESTV VP35 RBD [7]): 2.5 ± 0.1 µM
- Kd (EBOV VP35 RBD [8]): 1.9 ± 0.1 µM

B4: 12-bp palindromic dsRNA (crystal) (dsRNA)
RNA 1: CUAGACGUCUAG
RNA 2: CUAGACGUCUAG
- binding result (MARV VP35 RBD [9]): binds
